Measurements published in the DeepSol protein solubility set.

Assay: soluble on expression in E. coli; label from the status in PepcDB or PDB records

| Sequence | soluble on expression in E. coli |
| --- | --- |
| MGSDKIHHHHHHMLDQQHIQYFKNLVGGEDFFTDLAHLNAYCYDATKERHLPSGVIFPKNEQEISQILKYCNEHRIIVVPRGAGSGFTGGALSVSGGLVLSVEKHLDKILEIDTKNLIARVEPGVINKHFQNEVEKLNLFYPPDPASENQSTLGGNVAENAGGMRAAKYGITKDYVMALRVVLANGEIIRAGKKTIKDVAGFNVAGLMIASEGCLGVISEITLKLLAKPPLKQSAMGVFNHIEDAMNAVYKTMSSGVTPVAMEFLDNLSIKAVEERFSKGLPKDAGAILITQVDGVVKEQIAWQLNEIEKHFKANCCVDFKIAQNEQEEQDLWFSRRNASQSISVYGKKKLNEDVTVPRASLPSLLQEVAKISQKYGFKIPCFGHTGDGNVHVNIMLEDPKRDLEKGHEAMEEIFQAAISLEGTLSGEHGIGLSKAKFMPLAFNHSEMELFRNIKKALDPNNILNPFKMGL | not soluble |
| MAHHHHHHMSPVIALHEDLQKRLEEYRSTRGFSPVKWIEQKCAALNEYMASHGLKVCVTSVSGGIDSAVVLALCSRAMRMPNSPIVRNVGICQPICSSAWALARGRENIQSCGALEVIVDQTELYKQLSRIVETAVGIDGQNFARGQLRSYMRTPVAYYVAQLYSQEGNAAIVMGTGNMDEDGYLAYFCKAGDGVVDVQLISDLHKSEVFRVARELGVPANTLQASPSADLWEGQTDEEELGFPYDFVELYTGWCLQLSDEERQSFLHSLSSDARQQYEKYKDACENTHRRNAHKLRGPINL | soluble |
| MIVSSLRGGLGNQMFIYAMVKAMALRNNVPFAFNLTTDFANDEVYKRKLLLSYFALDLPENKKLTFDFSYGNYYRRLSRNLGCHILHPSYRYICEERPPHFESRLISSKITNAFLEGYWQSEKYFLDYKQEIKEDFVIQKKLEYTSYLELEEIKLLDKNAIMIGVRRYQESDVAPGGVLEDDYYKCAMDIMASKVTSPVFFCFSQDLEWVEKHLAGKYPVRLISKKEDDSGTIDDMFLMMHFRNYIISNSSFYWWGAWLSKYDDKLVIAPGNFINKDSVPESWFKLNVRMAGDPLEHHHHHH | not soluble |
| MGSDKIHHHHHHVSDLLSQDEIDALLHGVDDVEEEEVSDALDARAYDFSSQDRIVRGRMPTLEIVNERFARHLRISMFNMMRRAAEVSINGVQMLKFGEYVHTLFVPTSLNMVRFSPLKGTALITMEARLVFILVDNFFGGDGRFHAKIEGREFTPTERRIVQLLLKIIFEDYKEAWAPVMDVEFDYLDSEVNPAMANIVSPTEVVVVSSFHIEVDGGGGDFHITMPYSMIEPIRELLDAGVQSDTQDTDMRWSQALKDEIMDVEVGLDATIVEKEISLKDVMGFKAGDIIPVEMPEYIVLRVEDLPTYRCKLGRSRENLALNIREKIPRPETVKTELQLVTKKSKSRDLNNI | not soluble |
| MSLPRKIAYEIPKNWARSNHWLMKTIVGTTFEIEGLENIPETGCIFAPKHQSFWDTYALLPNLPDPVYILKRELLWIPLFGWYAMKQRMIPVNRAARGKVMLKVMERAKEEMAAGRELIIYPEGTRRPPGAEPEYRYGIARLYRDLQVPVIPVAMHPGLFWPRRSTMRYPGHFKVRILPAIEPGLDPDVFFKRLIEVTEKASDELLLETARNNPHLPLPPTAVKRIAELQGKETTADEGHHHHHH | not soluble |
| MTDQIKTDNARSKAEQLPLAFSHQSASGREDLLVSASLAAAVSLVDEWPNWPSPVVVLAGPPGSGKSHLANIWKNISDARDIHPEAGADAARAAETGPVLFEDADRRGFDDTELFHVINSVRQHGTTLLMTSRQWPAAWPVTLPDLRSRLKAVTVVETGEPDEGLLAQVLVKLFADRQLYMDDKLIGYIVNRMERSLDTAQTIVEQIDHLALSRATRITRPLVAEVLNAMDKAAAGDGSDID | not soluble |
| MKIIIIGGVAGGATTAARIRRTNEAAEIILLEKGKYISYANCGLPYYIGGVIKEREKLFVQTPEAFSTRFRVDVRTENEVIFIDRKRKTVTVRQSSGDTYEESYDKLLISTGASPVRPPLPGIDLNGIFTLRNVADTDRIKEYINSHAPRKAVVIGAGFIGLEMAENLHAQGAKVSIVEMGNQVMAPIDFSMASLVHQHLMDKGVNLYLEQAVASFERDGKGLKVIFKNGQSISADIVILSIGVRPETTLARAAELKIGEAGGIAVNDYLQTSDESIYAIGDAIEFRHPITGKPWLNYLAGPANRQGRIVADNIQGAHIPYEGAIGTSIAKVFDMTVASTGLPGKRLRQAEINYMSSTIHPSSHAGYYPDAMPMSIKITFDPKTGKLYGGQIVGYDGVDKRIDEIALVIKHEGTIYDLMKVEQAYAPPFSSAKDPVAVAGYVAENIITGKVQPVYWRQLRDIEMENNFLLDVRTPDEFSLNTLPGAVNIPLDELRDRLDELPKDKMIYTFCAVGLRGYLAYRILVQHGFEKVRNLSGGLKTYHAAAAPIILREESENEVPAQPNANIQQPADAQPQKTVSPVEAVKTIRVDACGLQCPGPILKMKKTMDSLVSGDRVEITSTDPGFPRDAAAWCNSTGNQLISKETAGGKSVVVIEKGEPKSCNIVTSCEGKGKTFIMFSDDLDKALATFVLANGAAATGQKVTIFFTFWGLNVIKKLHKPNVEKDIFGKMFGMMLPSSSRKLKLSKMSMGGIGGKMMRYIMNRKGIDSLESLRQQALENGVEFIACQMSMDVMGVKQEELLDEVTIGGVATYMERADNANINLFILEHHHHHH | not soluble |
| MDRLDRKILYLLQENATLSVADIAKKVGLSTTPCWRRIQKLEEDGVIQRRVAVLSPEKVNAHVTVFVSIRTNTHSQEWLKRFSKIVQEFREVIEFYRMSGDIDYLLRVVVPNIEAYDLFYKKLIAKIDIRDVSSSFAMEQIKYTTELPLNYIKLHDKTSEQNS | not soluble |
| MGSDKIHHHHHHMSTALFHHHSTLQDQLVAIHAALRASLPDIDRIAVAIYDTKTDALHTFIHSSDGRHPLDSYATTLTGVPSLAALATSGRIRVLNDLSPLALTGAHHTQVIAKAYRSSLTVPFYKGKALSGFLFFNSQQPDYFTSRRIDTLALAAEMICSRVIDTVISVEMLTSTIQIAKDISHFRDEETGAHLDRVANYARLIAETMGKEPSALPPGRHPVLDDEFAQMIFLFAPLHDIGKVAIPDHVLLKPGPLTPEERTIMRTHSDKGLAICRRILENVDFISGTQAAMLCDIVHAHHEAWDGSGYPRGLSGADIPLAAAIVTVADVFDALTSARPYKKPWSTEDAFAYLQEKSGQLFNPACVRAFLAHRDDVLAIRARFRDEVIPEAFQTPQTPQSKADKV | not soluble |
| MSLSSPRIIATYHLASDADLVAERAKGLAIEQSVECPLAAVGDPVILDTIVGRVEDIAELTPGRYAVRIGLAAATAPAEPGQLINMLFGNSSMQQDVTLVDVELPPSYLAAFGGPRLGLAGLRALTGTQDRALTASALKPQGLSPAALARIAGQLARGGVDVIKDDHGIADQAYSPFAARVEAVGRAVQEANVARDGHSLYAPNLSGTLDDMRRQLDLAREQGIAAVMVAPMIVGLANFHAVVKAAAGMVVIAHPALSGVTRIAPPLLLGKLFRLFGADATIFPNAGGRFGFSTETCLQLARAGRDPWGALEPCMPVPAGGLTADRVAELLQFYGHDVMLLIGGGLLSARERLTEEAARFVNEVAAHGKAEGHHHHHH | soluble |
| MDFLARATAIVGNTMVLMRRFGSPGTQAIGQSPAIPEAQKQGIMTLKMPAAKGWAPGHLPTPAPGLKVNAFARDLEHPRWIEVLPSGDVLVAEARQLPTPPKTLLDRAAQATMRRIRALGDSPNRITLLRDPDGRGEAQERETFLENQSQPFGMALVGDTFYVGNTDGIMAFPYRPGATRLEGPGRRLTTFKPGGHWTRSLIVSPDGRRIYAGVGSLSNIGDDGMEAEEGRAAIWELDLASGQARIYASGLRNPVGLAWEPTTRVLWTVVNERDGLGDETPPDYLTSVEEDGFYGWPYCYWNRIVDDRVPQDPAMVARAITPDYALGGHTASLGLCWVPAGTLPGFGDGMAIGQHGSWNRSKLSGYRLIFVPFANGRPSGPPRDILTGFLSDDEKLAYGRPVGVAVGPDRRSLLLADDVGDVIWRVTGALEHHHHHH | not soluble |
| MSLKICVIGSSGHFRYALEGLDEECSITGIAPGVPEEDLSKLEKAISEMNIKPKKYNNWWEMLEKEKPDILVINTVFSLNGKILLEALERKIHAFVEKPIATTFEDLEKIRSVYQKVRNEVFFTAMFGIRYRPHFLTAKKLVSEGAVGEIRLVNTQKSYKLGQRPDFYKKRETYGGTIPWVGIHAIDWIHWITGKKFLSVYATHSRLHNSGHGELETTALCHFTLENEVFASLSIDYLRPQGAPTHDDDRMRIVGTRGIVEVINERVFLTDEKGHREVPLVEKGQIFEDFLREIRGQGKCMVTPEDSILTTEIALKARLSADTGQIVLIEGHHHHHH | soluble |
